From patent publication US20240025978A1 (BIOVERATIV USA, published 2024)

Target: T1, activated human complement C1s (Homo sapiens, UniProt P09871 16-688)
T1 sequence: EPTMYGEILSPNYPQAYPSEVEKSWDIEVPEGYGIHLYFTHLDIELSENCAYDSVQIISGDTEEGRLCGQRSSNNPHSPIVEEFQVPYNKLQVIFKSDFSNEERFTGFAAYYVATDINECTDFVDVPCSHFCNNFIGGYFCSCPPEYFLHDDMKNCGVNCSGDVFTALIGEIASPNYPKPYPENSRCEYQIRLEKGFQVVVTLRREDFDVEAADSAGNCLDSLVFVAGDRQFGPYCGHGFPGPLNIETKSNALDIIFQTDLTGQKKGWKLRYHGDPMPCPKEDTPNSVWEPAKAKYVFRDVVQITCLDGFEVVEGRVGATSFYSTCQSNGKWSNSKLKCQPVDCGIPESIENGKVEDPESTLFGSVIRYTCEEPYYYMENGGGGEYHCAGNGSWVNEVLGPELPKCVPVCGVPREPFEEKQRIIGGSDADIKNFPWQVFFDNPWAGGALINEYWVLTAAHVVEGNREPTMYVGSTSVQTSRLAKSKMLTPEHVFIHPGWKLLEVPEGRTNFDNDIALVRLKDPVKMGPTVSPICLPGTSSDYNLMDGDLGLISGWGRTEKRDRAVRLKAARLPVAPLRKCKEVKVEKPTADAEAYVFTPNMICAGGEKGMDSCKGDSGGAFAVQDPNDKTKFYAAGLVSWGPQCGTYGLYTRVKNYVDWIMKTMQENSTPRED
Assay: cell-based or functional assay

percent CP (Wieslab classical pathway assay), population PK/PD model, typical IC50: 96.4 µg/mL
B1: SAR445088 (antibody, human IgG4 S228P, kappa, V domains shown)
VH: QVQLVQSGAEVKKPGASVKLSCTASGFNIKDDYIHWVKQAPGQGLEWIGRIDPADGHTKYAPKFQVKVTITADTSTSTAYLELSSLRSEDTAVYYCARYGYGREVFDYWGQGTTVTVSS
VL: DIVLTQSPDSLAVSLGERATISCKASQSVDYDGDSYMNWYQQKPGQPPKILIYDASNLESGIPARFSGSGSGTDFTLTISSLEPEDFAIYYCQQSNEDPWTFGGGTKVEIKR
CH50 (50% hemolytic complement activity, liposome-based assay), population PK/PD model, typical IC50: 16.6 µg/mL
